# Laboratory results taken from PMC7417364.
# Target: Paracoccidioides brasiliensis 1-Cys peroxiredoxin (PbPrx1), recombinant (Paracoccidioides brasiliensis (isolate Pb18))
# Experiment: SEC; analytical HPLC, Phenomenex BioSep-SEC-S3000 column, 50 uM protein in 100 mM Tris-HCl pH 7.4, run in 100 mM Tris-HCl pH 7.4 with 50 mM NaCl, 1.0 mL/min; samples treated beforehand with 5 mM TCEP (reduced) or 1.2 molar equivalents of H2O2 (oxidised) for 30 min at 25 C; dimeric in both redox states
substance,measurement,value
"Paracoccidioides brasiliensis 1-Cys peroxiredoxin (PbPrx1), recombinant (enzyme)",stoichiometry N,2
